{"source": "patent US20260248972A1", "about": "“DUAL RECEPTOR TARGETING RADIOLIGANDS AND USES THEREOF RELATED APPLICATIONS” (priority 2022, published 2026)", "assay": "in vivo", "conditions": "BALB/c nude, mouse, in vivo, iv, total radioactivity", "method": "To a 0.5 M NaOAc buffer (20-50 μL, pH=4.5) was added 4 μL of exemplary or comparator compound in DMSO stock solution (2000 μM) and 2 mCi ^177Lu (ITM Isotope Technologies Munich), the resulting mixture was heated to 95° C. for 15 min. The resulting product was analyzed by radio-TLC and radio-HPLC (column: Shim-pack GIST 5 μm 4.6*150 mm; buffer A: 0.2% formic acid H2O; buffer B: 0.1% formic acid acetonitrile; flow rate: 1 mL/min; gradient: 0-5 min: 10% B to 95% B; then 5-8 min: 95% B). The labelled products were used immediately or diluted by a PBS buffer containing freshly added 3 mg/mL ascorbate.\nAll animal care and experimental procedure were performed by following the animal protocols approved by the ethics committee of China Institute of Radiation Protection. The BALB/c nude mice (Charles River, Beijing) were utilized for these studies. Mice were below 5 per cage in sterile, microisolator cages under temperature- and humidity-controlled conditions with a 12 h light/12 h dark schedule and fed irradiated rodent chow and reverse osmosis (RO) sterile water ad libitum. In preparation for tumor cell inoculations, mice were anesthetized with isoflurane (RWD Life Science Inc.) at an induction rate of 4% and maintained at a rate of 2.5% with 0.4 L oxygen delivered via precision vaporizer and a non-rebreathing apparatus. These mice received subcutaneous rear flank injections of approximately 4×10^6 AR42J cells ([…] pancreatic cancer cell line) suspended in 200 μL of phosphate-buffered saline (PBS) and Matrigel (Corning) (1/1). Xenografted tumors were allowed to grow for ~2-4 weeks post-inoculation and ranged in mass from 0.05 to 0.50 g (average tumor size, 0.20 g). […] The mice were euthanized, and the tissues and organs were excised from the animals at 4, 24 and 72 h post-injection. The tissues and organs were weighed, counted in a PerkinElmer 2480 WIZARD2 γ counter, and the percent injected dose (% ID) and % ID/g of each organ or tissue were calculated.", "data": [{"molecule": "C[C@@H](O)[C@H](NC(=O)[C@@H]1CSSC[C@H](NC(=O)[C@@H](Cc2ccccc2)NC(=O)[C@H](CCCCNC(=O)COCCOCCNC(=O)c2cccc(NC(=O)N[C@@H]3CN(C4CCCCC4)c4ccccc4N(CC(=O)C(C)(C)C)C3=O)c2)NC(=O)CN2CCN(CC(=O)O)CCN(CC(=O)O)CCN(CC(=O)O)CC2)C(=O)N[C@@H](Cc2ccc(O)cc2)C(=O)N[C@H](Cc2c[nH]c3ccccc23)C(=O)N[C@@H](CCCCN)C(=O)N[C@@H]([C@@H](C)O)C(=O)N1)C(=O)O", "note": "[^177Lu-I-36, metal not drawn]", "values": [{"measurement": "tissue uptake at 4 h", "setting": "% ID/g Adrenal gland", "result": 2.48, "unit": "%ID/g"}, {"measurement": "tissue uptake at 24 h", "setting": "% ID/g Adrenal gland", "result": 1.67, "unit": "%ID/g"}, {"measurement": "tissue uptake at 72 h", "setting": "% ID/g Adrenal gland", "result": 0.87, "unit": "%ID/g"}, {"measurement": "tissue uptake at 4 h", "setting": "% ID/g Blood", "result": 2.09, "unit": "%ID/g"}, {"measurement": "tissue uptake at 24 h", "setting": "% ID/g Blood", "result": 0.7, "unit": "%ID/g"}, {"measurement": "tissue uptake at 72 h", "setting": "% ID/g Blood", "result": 0.21, "unit": "%ID/g"}, {"measurement": "tissue uptake at 4 h", "setting": "% ID/g Fat", "result": 3.32, "unit": "%ID/g"}, {"measurement": "tissue uptake at 24 h", "setting": "% ID/g Fat", "result": 2.39, "unit": "%ID/g"}, {"measurement": "tissue uptake at 72 h", "setting": "% ID/g Fat", "result": 1.12, "unit": "%ID/g"}, {"measurement": "tissue uptake at 4 h", "setting": "% ID/g Femur", "result": 0.79, "unit": "%ID/g"}, {"measurement": "tissue uptake at 24 h", "setting": "% ID/g Femur", "result": 0.76, "unit": "%ID/g"}, {"measurement": "tissue uptake at 72 h", "setting": "% ID/g Femur", "result": 0.59, "unit": "%ID/g"}, {"measurement": "tissue uptake at 4 h", "setting": "% ID/g Heart", "result": 1.36, "unit": "%ID/g"}, {"measurement": "tissue uptake at 24 h", "setting": "% ID/g Heart", "result": 0.85, "unit": "%ID/g"}, {"measurement": "tissue uptake at 72 h", "setting": "% ID/g Heart", "result": 0.47, "unit": "%ID/g"}, {"measurement": "tissue uptake at 4 h", "setting": "% ID/g Intestine", "result": 2.27, "unit": "%ID/g"}, {"measurement": "tissue uptake at 24 h", "setting": "% ID/g Intestine", "result": 1.29, "unit": "%ID/g"}, {"measurement": "tissue uptake at 72 h", "setting": "% ID/g Intestine", "result": 1.39, "unit": "%ID/g"}, {"measurement": "tissue uptake at 4 h", "setting": "% ID/g Kidney", "result": 20.7, "unit": "%ID/g"}, {"measurement": "tissue uptake at 24 h", "setting": "% ID/g Kidney", "result": 18.4, "unit": "%ID/g"}, {"measurement": "tissue uptake at 72 h", "setting": "% ID/g Kidney", "result": 14.2, "unit": "%ID/g"}, {"measurement": "tissue uptake at 4 h", "setting": "% ID/g Liver", "result": 12, "unit": "%ID/g"}, {"measurement": "tissue uptake at 24 h", "setting": "% ID/g Liver", "result": 7.22, "unit": "%ID/g"}, {"measurement": "tissue uptake at 72 h", "setting": "% ID/g Liver", "result": 3.99, "unit": "%ID/g"}, {"measurement": "tissue uptake at 4 h", "setting": "% ID/g Lung", "result": 2.89, "unit": "%ID/g"}, {"measurement": "tissue uptake at 24 h", "setting": "% ID/g Lung", "result": 1.72, "unit": "%ID/g"}, {"measurement": "tissue uptake at 72 h", "setting": "% ID/g Lung", "result": 1.36, "unit": "%ID/g"}, {"measurement": "tissue uptake at 4 h", "setting": "% ID/g Muscle", "result": 0.41, "unit": "%ID/g"}, {"measurement": "tissue uptake at 24 h", "setting": "% ID/g Muscle", "result": 0.25, "unit": "%ID/g"}, {"measurement": "tissue uptake at 72 h", "setting": "% ID/g Muscle", "result": 0.13, "unit": "%ID/g"}, {"measurement": "tissue uptake at 4 h", "setting": "% ID/g Pancreas", "result": 5.66, "unit": "%ID/g"}, {"measurement": "tissue uptake at 24 h", "setting": "% ID/g Pancreas", "result": 3.34, "unit": "%ID/g"}, {"measurement": "tissue uptake at 72 h", "setting": "% ID/g Pancreas", "result": 1.28, "unit": "%ID/g"}, {"measurement": "tissue uptake at 4 h", "setting": "% ID/g Spleen", "result": 0.97, "unit": "%ID/g"}, {"measurement": "tissue uptake at 24 h", "setting": "% ID/g Spleen", "result": 0.85, "unit": "%ID/g"}, {"measurement": "tissue uptake at 72 h", "setting": "% ID/g Spleen", "result": 0.36, "unit": "%ID/g"}, {"measurement": "tissue uptake at 4 h", "setting": "% ID/g Stomach", "result": 6.6, "unit": "%ID/g"}, {"measurement": "tissue uptake at 24 h", "setting": "% ID/g Stomach", "result": 5.96, "unit": "%ID/g"}, {"measurement": "tissue uptake at 72 h", "setting": "% ID/g Stomach", "result": 3.8, "unit": "%ID/g"}, {"measurement": "tissue uptake at 4 h", "setting": "% ID/g Tumor", "result": 45.1, "unit": "%ID/g"}, {"measurement": "tissue uptake at 24 h", "setting": "% ID/g Tumor", "result": 35.2, "unit": "%ID/g"}, {"measurement": "tissue uptake at 72 h", "setting": "% ID/g Tumor", "result": 36.4, "unit": "%ID/g"}]}, {"molecule": "C[C@@H](O)[C@H](NC(=O)[C@@H]1CSSC[C@H](NC(=O)[C@@H](Cc2ccccc2)NC(=O)CN2CCN(CC(=O)O)CCN(CC(=O)O)CCN(CC(=O)O)CC2)C(=O)N[C@@H](Cc2ccc(O)cc2)C(=O)N[C@H](Cc2c[nH]c3ccccc23)C(=O)N[C@@H](CCCCN)C(=O)N[C@@H]([C@@H](C)O)C(=O)N1)C(=O)O", "note": "[^177Lu-C-1, metal not drawn, reference compound]", "values": [{"measurement": "tissue uptake at 4 h", "setting": "% ID/g Adrenal gland", "result": 8.73, "unit": "%ID/g"}, {"measurement": "tissue uptake at 24 h", "setting": "% ID/g Adrenal gland", "result": 0.15, "unit": "%ID/g"}, {"measurement": "tissue uptake at 72 h", "setting": "% ID/g Adrenal gland", "result": 0.13, "unit": "%ID/g"}, {"measurement": "tissue uptake at 4 h", "setting": "% ID/g Blood", "result": 0.02, "unit": "%ID/g"}, {"measurement": "tissue uptake at 24 h", "setting": "% ID/g Blood", "result": 0.01, "unit": "%ID/g"}, {"measurement": "tissue uptake at 72 h", "setting": "% ID/g Blood", "result": 0.01, "unit": "%ID/g"}, {"measurement": "tissue uptake at 4 h", "setting": "% ID/g Femur", "result": 0.07, "unit": "%ID/g"}, {"measurement": "tissue uptake at 24 h", "setting": "% ID/g Femur", "result": 0.11, "unit": "%ID/g"}, {"measurement": "tissue uptake at 72 h", "setting": "% ID/g Femur", "result": 0.08, "unit": "%ID/g"}, {"measurement": "tissue uptake at 4 h", "setting": "% ID/g Heart", "result": 0.06, "unit": "%ID/g"}, {"measurement": "tissue uptake at 24 h", "setting": "% ID/g Heart", "result": 0.05, "unit": "%ID/g"}, {"measurement": "tissue uptake at 72 h", "setting": "% ID/g Heart", "result": 0.04, "unit": "%ID/g"}, {"measurement": "tissue uptake at 4 h", "setting": "% ID/g Intestine", "result": 0.2, "unit": "%ID/g"}, {"measurement": "tissue uptake at 24 h", "setting": "% ID/g Intestine", "result": 0.46, "unit": "%ID/g"}, {"measurement": "tissue uptake at 72 h", "setting": "% ID/g Intestine", "result": 0.11, "unit": "%ID/g"}, {"measurement": "tissue uptake at 4 h", "setting": "% ID/g Kidney", "result": 3.88, "unit": "%ID/g"}, {"measurement": "tissue uptake at 24 h", "setting": "% ID/g Kidney", "result": 1.21, "unit": "%ID/g"}, {"measurement": "tissue uptake at 4 h", "setting": "% ID/g Liver", "result": 0.1, "unit": "%ID/g"}, {"measurement": "tissue uptake at 24 h", "setting": "% ID/g Liver", "result": 0.07, "unit": "%ID/g"}, {"measurement": "tissue uptake at 72 h", "setting": "% ID/g Liver", "result": 0.06, "unit": "%ID/g"}, {"measurement": "tissue uptake at 4 h", "setting": "% ID/g Lung", "result": 0.63, "unit": "%ID/g"}, {"measurement": "tissue uptake at 24 h", "setting": "% ID/g Lung", "result": 0.32, "unit": "%ID/g"}, {"measurement": "tissue uptake at 72 h", "setting": "% ID/g Lung", "result": 0.21, "unit": "%ID/g"}, {"measurement": "tissue uptake at 4 h", "setting": "% ID/g Muscle", "result": 0.01, "unit": "%ID/g"}, {"measurement": "tissue uptake at 24 h", "setting": "% ID/g Muscle", "result": 0.02, "unit": "%ID/g"}, {"measurement": "tissue uptake at 72 h", "setting": "% ID/g Muscle", "result": 0.01, "unit": "%ID/g"}, {"measurement": "tissue uptake at 4 h", "setting": "% ID/g Pancreas", "result": 0.02, "unit": "%ID/g"}, {"measurement": "tissue uptake at 24 h", "setting": "% ID/g Pancreas", "result": 0.16, "unit": "%ID/g"}, {"measurement": "tissue uptake at 72 h", "setting": "% ID/g Pancreas", "result": 0.03, "unit": "%ID/g"}, {"measurement": "tissue uptake at 4 h", "setting": "% ID/g Spleen", "result": 0.08, "unit": "%ID/g"}, {"measurement": "tissue uptake at 24 h", "setting": "% ID/g Spleen", "result": 0.04, "unit": "%ID/g"}, {"measurement": "tissue uptake at 72 h", "setting": "% ID/g Spleen", "result": 0.05, "unit": "%ID/g"}, {"measurement": "tissue uptake at 4 h", "setting": "% ID/g Stomach", "result": 1.18, "unit": "%ID/g"}, {"measurement": "tissue uptake at 24 h", "setting": "% ID/g Stomach", "result": 0.59, "unit": "%ID/g"}, {"measurement": "tissue uptake at 72 h", "setting": "% ID/g Stomach", "result": 0.21, "unit": "%ID/g"}, {"measurement": "tissue uptake at 4 h", "setting": "% ID/g Tumor", "result": 14, "unit": "%ID/g"}, {"measurement": "tissue uptake at 24 h", "setting": "% ID/g Tumor", "result": 5.76, "unit": "%ID/g"}, {"measurement": "tissue uptake at 72 h", "setting": "% ID/g Tumor", "result": 4.33, "unit": "%ID/g"}]}]}
